Where a chain is given by its changes, count along the chain named.
T1: FZD6 cysteine-rich domain (CRD), MYC-tagged and GPI-anchored on CHO cells (human, UniProt O60353 20-146, GPI anchor)
T1 construct: also called FZD6 CRD; CHO-myc-FZDGPI; not shown: MYC tag and GPI anchor signal
T1 sequence: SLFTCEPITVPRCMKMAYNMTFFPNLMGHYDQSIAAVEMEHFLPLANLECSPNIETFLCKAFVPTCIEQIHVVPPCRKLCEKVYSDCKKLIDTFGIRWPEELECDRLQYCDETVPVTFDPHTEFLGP

T2: FZD10 cysteine-rich domain (CRD), MYC-tagged and GPI-anchored on CHO cells (human, UniProt Q9ULW2 30-156, GPI anchor)
T2 construct: also called FZD10 CRD; CHO-myc-FZDGPI; not shown: MYC tag and GPI anchor signal
T2 sequence: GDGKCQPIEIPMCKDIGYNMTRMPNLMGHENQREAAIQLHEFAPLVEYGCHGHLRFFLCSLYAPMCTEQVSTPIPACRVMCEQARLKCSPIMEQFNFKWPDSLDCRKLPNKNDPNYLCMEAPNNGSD

T3: FZD9 cysteine-rich domain (CRD), MYC-tagged and GPI-anchored on CHO cells (human, UniProt O00144 35-161, GPI anchor)
T3 construct: also called FZD9 CRD; CHO-myc-FZDGPI; not shown: MYC tag and GPI anchor signal
T3 sequence: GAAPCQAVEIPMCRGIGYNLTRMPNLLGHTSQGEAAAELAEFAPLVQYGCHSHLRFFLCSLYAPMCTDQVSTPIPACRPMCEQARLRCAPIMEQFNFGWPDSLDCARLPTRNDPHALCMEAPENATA

T4: FZD4 cysteine-rich domain (CRD), MYC-tagged and GPI-anchored on CHO cells (human, UniProt Q9ULV1 42-167, GPI anchor)
T4 construct: also called FZD4 CRD; CHO-myc-FZDGPI; not shown: MYC tag and GPI anchor signal
T4 sequence: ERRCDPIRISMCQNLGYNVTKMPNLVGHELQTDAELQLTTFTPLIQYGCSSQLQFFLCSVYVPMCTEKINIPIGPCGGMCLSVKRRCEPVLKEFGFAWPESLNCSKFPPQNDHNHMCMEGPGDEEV

T5: FZD3 cysteine-rich domain (CRD), MYC-tagged and GPI-anchored on CHO cells (human, UniProt Q9NPG1 24-150, GPI anchor)
T5 construct: domain: cysteine-rich domain (CRD); also called FZD3 CRD; CHO-myc-FZDGPI; not shown: MYC tag and GPI anchor signal
T5 sequence (looked up): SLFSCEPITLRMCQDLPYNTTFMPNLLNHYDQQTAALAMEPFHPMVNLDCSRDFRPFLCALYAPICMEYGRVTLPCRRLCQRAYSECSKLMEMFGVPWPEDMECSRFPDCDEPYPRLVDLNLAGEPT

T6: FZD8 cysteine-rich domain (CRD), MYC-tagged and GPI-anchored on CHO cells (human, UniProt Q498S8 31-155 (rat entry), GPI anchor)
T6 construct: also called FZD8 CRD; CHO-myc-FZDGPI; not shown: MYC tag and GPI anchor signal
T6 sequence: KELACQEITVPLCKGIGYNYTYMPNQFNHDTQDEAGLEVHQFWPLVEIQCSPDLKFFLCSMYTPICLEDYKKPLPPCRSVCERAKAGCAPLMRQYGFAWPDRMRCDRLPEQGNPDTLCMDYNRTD

T7: FZD5 cysteine-rich domain (CRD), MYC-tagged and GPI-anchored on CHO cells (human, UniProt Q13467 29-156, GPI anchor)
T7 construct: also called FZD5 CRD; CHO-myc-FZDGPI; not shown: MYC tag and GPI anchor signal
T7 sequence: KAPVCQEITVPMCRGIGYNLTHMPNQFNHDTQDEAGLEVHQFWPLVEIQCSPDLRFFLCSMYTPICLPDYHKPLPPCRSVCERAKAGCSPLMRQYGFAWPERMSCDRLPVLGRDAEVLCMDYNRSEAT

B1: Fab-2901 (Fab, V domains shown)
VH: EVQLVESGGGLVQPGGSLRLSCAASGFNISYSYMHWVRQAPGKGLEWVASIYSYSSYTYYADSVKGRFTISADTSKNTAYLQMNSLRAEDTAVYYCARSWYYWSPSSGMDYWGQGTLVTVSS
VL: DIQMTQSPSSLSASVGDRVTITCRASQSVSSAVAWYQQKPGKAPKLLIYSASSLYSGVPSRFSGSRSGTDFTLTISSLQPEDFATYYCQQGGFLITFGQGTKVEIK
notes: Fab; also called Fv-2901
B2: Fab-2931 (Fab, V domains shown)
VH: EVQLVESGGGLVQPGGSLRLSCAASGFNLSYSSMHWVRQAPGKGLEWVAYISPYSGSTYYADSVKGRFTISADTSKNTAYLQMNSLRAEDTAVYYCARGSYWYVGGGWWVSGHGGMDYWGQGTLVTVSS
VL: DIQMTQSPSSLSASVGDRVTITCRASQSVSSAVAWYQQKPGKAPKLLIYSASSLYSGVPSRFSGSRSGTDFTLTISSLQPEDFATYYCQQSSYSLITFGQGTKVEIK
notes: Fab; also called Fv-2931
B3: Fab-2900 (Fab, V domains shown)
VH: EVQLVESGGGLVQPGGSLRLSCAASGFNLSSYYIHWVRQAPGKGLEWVASISSSSSSTSYADSVKGRFTISADTSKNTAYLQMNSLRAEDTAVYYCARGALDYWGQGTLVTVSS
VL: DIQMTQSPSSLSASVGDRVTITCRASQSVSSAVAWYQQKPGKAPKLLIYSASSLYSGVPSRFSGSRSGTDFTLTISSLQPEDFATYYCQQWYSGSSLFTFGQGTKVEIK
notes: Fab; also called Fv-2900
B4: Fab-2932 (Fab, V domains shown)
VH: B3 VH with L29I, S31Y, Y32S, I34M, S52Y, S55Y
VL: B3 VL with S93G, G94S, S95F, S96A, F98I
notes: Fab; also called Fv-2932
B5: Fab-2903 (Fab, V domains shown)
VH: B3 VH with S31Y, S52Y, S53P, S54Y, S57Y, L101I
V domain: DIQMTQSPSSLSASVGDRVTITCRASQSVSSAVAWYQQKPGKAPKLLIYSASSLYSGVPSRFSGSRSGTDFTLTISSLQPEDFATYYCQQWGGGSSLFTFG
notes: Fab; also called Fv-2903
B6: Fab-2915 (Fab, V domains shown)
VH: EVQLVESGGGLVQPGGSLRLSCAASGFNIYYYSMHWVRQAPGKGLEWVASIYSSYGYTSYADSVKGRFTISADTSKNTAYLQMNSLRAEDTAVYYCARGYHYYPYYSGLDYWGQGTLVTVSS
VL: DIQMTQSPSSLSASVGDRVTITCRASQSVSSAVAWYQQKPGKAPKLLIYSASSLYSGVPSRFSGSRSGTDFTLTISSLQPEDFATYYCQQAYYHSLITFGQGTKVEIK
notes: Fab; also called Fv-2915
B7: Fab-2905 (Fab, V domains shown)
VH: EVQLVESGGGLVQPGGSLRLSCAASGFNLSYYYMHWVRQAPGKGLEWVASIYSSYSYTSYADSVKGRFTISADTSKNTAYLQMNSLRAEDTAVYYCARSGYALDYWGQGTLVTVSS
VL: DIQMTQSPSSLSASVGDRVTITCRASQSVSSAVAWYQQKPGKAPKLLIYSASSLYSGVPSRFSGSRSGTDFTLTISSLQPEDFATYYCQQSSWYYGYPFTFGQGTKVEIK
notes: Fab; also called Fv-2905

Each binder was assayed against T1, FZD6 cysteine-rich domain (CRD), … (assay: immunofluorescence, CHO-CRD cells).
B1: no binding. B2: no binding. B3: no binding. B4: no binding. B5: no binding. B6: no binding. B7: no binding.

These binders were tested against T2, FZD10 cysteine-rich domain (CRD), … (assay: immunofluorescence, CHO-CRD cells).
B1: no binding. B2: no binding. B3: no binding. B4: no binding. B5: no binding. B6: no binding. B7: no binding.

Each binder was assayed against T3, FZD9 cysteine-rich domain (CRD), … (assay: immunofluorescence, CHO-CRD cells).
B1: no binding. B2: no binding. B3: no binding. B4: no binding. B5: no binding. B6: no binding. B7: no binding.

These binders were tested against T4, FZD4 cysteine-rich domain (CRD), … (assay: immunofluorescence, CHO-CRD cells).
B1: no binding. B2: no binding. B3: no binding. B4: no binding. B5: no binding. B6: no binding. B7: no binding.

What follows are binders tested against T5, FZD3 cysteine-rich domain (CRD), … (assay: immunofluorescence, CHO-CRD cells).
B1: no binding. B2: no binding. B3: no binding. B4: no binding. B5: no binding. B6: no binding. B7: no binding.

What follows are binders tested against T1, FZD6 cysteine-rich domain (CRD), … (assay: flow cytometry, CHO-CRD cells;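 also: flow cytometry of Fab binding to CHO cells overexpressing a Frizzled CRD, with binding defined as median fluorescence over twice that of CHO cells lacking any Frizzled CRD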).
Experimental: (§1) Binding was measured via flow cytometry analysis of CHO cells overexpressing CRD of FZD1, FZD2, FZD3, FZD4, FZD5, FZD6, FZD7, FZD8, FZD9 or FZD10. Median fluorescence values are shown.
B1 gave a median fluorescence of 3.62. B2 showed a median fluorescence of 2.89. Binder B3 has a median fluorescence of 3.37. B4 showed a median fluorescence of 3.11. In the case of B5, the median fluorescence is reported as 3.52. Work on B6 yielded a median fluorescence of 3.37. For B7, the median fluorescence was 3.22.

Each binder was assayed against FZD1 cysteine-rich domain (CRD), MYC-tagged and GPI-anchored on CHO cells (human) (assay: flow cytometry, CHO-CRD cells;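 also: flow cytometry of Fab binding to CHO cells overexpressing a Frizzled CRD, with binding defined as median fluorescence over twice that of CHO cells lacking any Frizzled CRD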).
Experimental: as §1
B1 gave a median fluorescence of 17.1. B4 gave a median fluorescence of 16.6. For B5, the median fluorescence was 8.66. B6 showed a median fluorescence of 36.9.

What follows are binders tested against T2, FZD10 cysteine-rich domain (CRD), … (assay: flow cytometry, CHO-CRD cells;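 also: flow cytometry of Fab binding to CHO cells overexpressing a Frizzled CRD, with binding defined as median fluorescence over twice that of CHO cells lacking any Frizzled CRD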).
Experimental: as §1
In the case of B1, the median fluorescence is reported as 3.85. B2 gave a median fluorescence of 2.59. With B3 the median fluorescence was 3.25. Binder B4 has a median fluorescence of 3.82. In the case of B5, the median fluorescence is reported as 3.05. B6 gave a median fluorescence of 3.92. For B7, the median fluorescence was 3.31.

Each binder was assayed against T6, FZD8 cysteine-rich domain (CRD), … (assay: flow cytometry, CHO-CRD cells;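 also: flow cytometry of Fab binding to CHO cells overexpressing a Frizzled CRD, with binding defined as median fluorescence over twice that of CHO cells lacking any Frizzled CRD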).
Experimental: as §1
In the case of B1, the median fluorescence is reported as 10.9. B3 gave a median fluorescence of 23.3. With B4 the median fluorescence was 28.9. B5 gave a median fluorescence of 13.7.

The binders below were run against T3, FZD9 cysteine-rich domain (CRD), … (assay: flow cytometry, CHO-CRD cells).
Experimental: as §1
With B1 the median fluorescence was 3.25. For B2, the median fluorescence was 2.76. B3 was tested, and the median fluorescence was 3.01. In the case of B4, the median fluorescence is reported as 3.62. Work on B5 yielded a median fluorescence of 3.11. B6 was tested, and the median fluorescence was 3.92. For B7, the median fluorescence was 3.25.

Each binder was assayed against FZD2 cysteine-rich domain (CRD), MYC-tagged and GPI-anchored on CHO cells (human, UniProt Q14332 35-161) (assay: flow cytometry, CHO-CRD cells).
Experimental: as §1
In the case of B6, the median fluorescence is reported as 22.1.

Each binder was assayed against T4, FZD4 cysteine-rich domain (CRD), … (assay: flow cytometry, CHO-CRD cells).
Experimental: as §1
With B1 the median fluorescence was 5.09. In the case of B2, the median fluorescence is reported as 3.65. B3 showed a median fluorescence of 5.62. Binder B4 has a median fluorescence of 4.26. B5 showed a median fluorescence of 5.52. Work on B6 yielded a median fluorescence of 5.99. Binder B7 has a median fluorescence of 4.57.

What follows are binders tested against T7, FZD5 cysteine-rich domain (CRD), … (assay: flow cytometry, CHO-CRD cells).
Experimental: as §1
For B1, the median fluorescence was 32.8. B2 showed a median fluorescence of 28.1. In the case of B3, the median fluorescence is reported as 38.2. Binder B4 has a median fluorescence of 29.4. Work on B5 yielded a median fluorescence of 34.9. B7 gave a median fluorescence of 24.8.

Each binder was assayed against T5, FZD3 cysteine-rich domain (CRD), … (assay: flow cytometry, CHO-CRD cells).
Experimental: as §1
In the case of B1, the median fluorescence is reported as 4.1. In the case of B2, the median fluorescence is reported as 3.49. Work on B3 yielded a median fluorescence of 4.26. For B4, the median fluorescence was 3.85. B5 was tested, and the median fluorescence was 4.18. For B6, the median fluorescence was 5.05. B7 gave a median fluorescence of 4.1.

What follows are binders tested against FZD7 cysteine-rich domain (CRD), MYC-tagged and GPI-anchored on CHO cells (human, UniProt O75084 45-169) (assay: flow cytometry, CHO-CRD cells).
Experimental: as §1
B1 showed a median fluorescence of 47. B4 was tested, and the median fluorescence was 34.3. B5 gave a median fluorescence of 8.58. B6 gave a median fluorescence of 40.7.
